Laboratory results reported in patent EP4714978A1 (Neukio Biotherapeutics (Shangai ) Co., Ltd., dated 2026).
Each block holds one binder with its values, some of them ahead of it.

What was measured:
[1] = target: T1, DLL3 on the surface of DLL3-positive cell lines SHP77 and NCI-H82 (UniProt Q9NYJ7 27-618, limits assumed); assay: flow cytometry on SHP77 cells
T1 construct: whole, on cells; The cell line of each number is named under assay
T1 sequence (looked up): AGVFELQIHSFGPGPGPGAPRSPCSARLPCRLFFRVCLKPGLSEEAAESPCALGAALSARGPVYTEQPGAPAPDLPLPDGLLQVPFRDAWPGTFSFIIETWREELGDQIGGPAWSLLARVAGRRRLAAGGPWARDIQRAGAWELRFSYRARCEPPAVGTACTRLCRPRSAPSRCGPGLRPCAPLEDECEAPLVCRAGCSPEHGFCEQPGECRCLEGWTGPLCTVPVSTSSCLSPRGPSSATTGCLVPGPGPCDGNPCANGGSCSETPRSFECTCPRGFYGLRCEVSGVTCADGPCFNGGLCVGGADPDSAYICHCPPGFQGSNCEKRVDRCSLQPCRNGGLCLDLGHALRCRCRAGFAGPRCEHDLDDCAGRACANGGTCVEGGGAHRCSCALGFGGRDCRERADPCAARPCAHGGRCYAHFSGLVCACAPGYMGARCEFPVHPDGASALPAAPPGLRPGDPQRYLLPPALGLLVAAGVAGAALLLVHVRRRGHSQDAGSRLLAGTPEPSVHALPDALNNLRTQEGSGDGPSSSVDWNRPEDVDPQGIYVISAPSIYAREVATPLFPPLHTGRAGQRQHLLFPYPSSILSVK

human DLL3 protein [2] = target: T2, human DLL3 protein (human, UniProt Q9NYJ7 27-492, limits assumed); assay: BLI, scFv-Fc against human DLL3 protein
T2 construct: Soluble human DLL3 protein used in BLI; also called Delta-like protein 3
T2 sequence (looked up): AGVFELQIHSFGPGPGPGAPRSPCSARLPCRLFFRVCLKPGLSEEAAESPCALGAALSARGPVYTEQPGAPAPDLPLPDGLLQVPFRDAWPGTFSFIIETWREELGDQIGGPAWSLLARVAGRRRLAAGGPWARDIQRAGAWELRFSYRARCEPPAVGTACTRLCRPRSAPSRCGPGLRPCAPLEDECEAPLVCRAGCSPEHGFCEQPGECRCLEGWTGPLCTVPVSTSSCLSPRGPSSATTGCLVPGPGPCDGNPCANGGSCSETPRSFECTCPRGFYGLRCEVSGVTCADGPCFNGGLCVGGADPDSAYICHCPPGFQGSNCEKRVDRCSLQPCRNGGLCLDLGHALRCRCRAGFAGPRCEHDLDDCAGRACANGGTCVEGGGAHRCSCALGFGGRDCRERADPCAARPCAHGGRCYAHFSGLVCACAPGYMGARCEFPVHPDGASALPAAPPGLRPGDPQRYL

[3] = target: T1, DLL3 on the surface of DLL3-positive …; assay: flow cytometry on NCI-H82 cells
human DLL3 protein [4] = target: T2, human DLL3 protein; assay: BLI, scFv-Fc against human DLL3 protein; koff below the instrument detection limit

B1: Ab.67 scFv-human IgG Fc (Fc fusion)
chain: DVVVTQSPLSLPVTLGQPASISCRSSQSLVYSDGNTYLNWFQQRPGQSPRRLVYQVSNRDSGVPDRFSGSGSGTDFTLKISGMEAEDAGVYYCMQGTHWPHTFGQGTKLEIKGGGGSGGGGSGGGGSEVHLVESGGGLVQPGGSLKLSCAASGFIFSGSSMHWVRQASGKGLEWIGRIRNKANNYATSYGASVQGRFTMSRDDSKNTAYLQMNSLKAEDTAVYYCTYLSGEFWGQGTLVTVSS
notes: Tested as scFv-human IgG Fc; not shown: human IgG Fc
EC50 [1]: 0.14 µg/mL
Kd (human DLL3 protein [2]): 0.34 nM
koff (human DLL3 protein [2]): 0.000182 s⁻¹
kon (human DLL3 protein [2]): 534000 M⁻¹ s⁻¹
EC50 [3]: 0.11 µg/mL

B6: AMG757 (anti-DLL3 scFv from Amgen's patent, positive control) scFv-human IgG Fc (Fc fusion)
chain: EIVLTQSPGTLSLSPGERVTLSCRASQRVNNNYLAWYQQRPGQAPRLLIYGASSRATGIPDRFSGSGSGTDFTLTISRLEPEDFAVYYCQQYDRSPLTFGCGTKLEIKGGGGSGGGGSGGGGSQVQLQESGPGLVKPSETLSLTCTVSGGSISSYYWSWIRQPPGKCLEWIGYVYYSGTTNYNPSLKSRVTISVDTSKNQFSLKLSSVTAADTAVYYCASIAVTGFYFDYWGQGTLVTVSS
notes: not shown: human IgG Fc
EC50 [1]: 0.089 µg/mL
Kd (human DLL3 protein [2]): 0.164 nM
koff (human DLL3 protein [2]): 3.03e-05 s⁻¹
kon (human DLL3 protein [2]): 185000 M⁻¹ s⁻¹
EC50 [3]: 0.082 µg/mL

B7: Ab.63 scFv-human IgG Fc (Fc fusion)
chain: QIVLTQSPGTLSLSPGERATLSCRASQSVTRGYLAWYQQKPGQAPRLLFYGASNRATDIPDRFSGSGSGTDFTLIISRLEPEDFAVYYCQQYGISPLTFGGGTKVEIKGGGGSGGGGSGGGGSQVQLHESGPGLVKPSETLSLTCTVSGASISSYYWSWIRQPPGKGLEWIGYIYYSGTTNFNPSLKSRVTISVDTSKNQFSLRLSSVTTADTAVYYCANLALTGFHFDYWGQGTLVTVSS
notes: as for B1
EC50 [1]: 0.011 µg/mL
Kd (human DLL3 protein [2]): 1.41 nM
koff (human DLL3 protein [2]): 0.000597 s⁻¹
kon (human DLL3 protein [2]): 424000 M⁻¹ s⁻¹
EC50 [3]: 0.012 µg/mL

B8: Ab.55 scFv-human IgG Fc (Fc fusion)
chain: EVVMTQSPLSLPVTLGQPASVSCRSSQSLLYSDGNTYLIWFQQRPGQSPRRLLYKLSTRDSGVPDRFSGSGSGTDFTLKISRVEAEDVGIYYCMQVTHWPYTFGQGTKLEIKGGGGSGGGGSGGGGSQVQLRESGPGLVKPSETLSLTCTVSGDSLKNSYWGWIRQPPGKGLEWIGYIYYSGTSSYNPSLESRVTFSADTSKNQFSLKLSSVTAADTAVYYCSREGSFDVWGRGTLVTVSS
notes: as for B1
EC50 [1]: 0.11 µg/mL
Kd (human DLL3 protein [2]): 0.197 nM
koff (human DLL3 protein [2]): 6.31e-05 s⁻¹
kon (human DLL3 protein [2]): 320000 M⁻¹ s⁻¹
EC50 [3]: 0.15 µg/mL

Further lines, results first:

EC50 [1]: 0.077 µg/mL
Kd (human DLL3 protein [2]): < 0.005 nM
kon (human DLL3 protein [2]): 193000 M⁻¹ s⁻¹
EC50 [3]: 0.042 µg/mL
koff (human DLL3 protein [4]): < 1e-06 s⁻¹
B2: Ab.73 scFv-human IgG Fc (Fc fusion)
chain: DVVMTQSPLSLPVTLGQPASISCRSSQSLGYSDGDTYLIWFLQRPGQSPRRLIYKVSNRDSGVPDRFSGSGSGTDFTLKISRVEAEDVGVYYCMQGTHWPYTFGQGTKLEIKGGGGSGGGGSGGGGSQVQVQESGPGLVKPSETLSLTCTVSTGSFSSHYWSWIRQPPGKSLEYIGYIYYTGTTNYNPSLKSRVTISVDTSKNQFSLNVNSVTAADTAVYYCAREGTFDIWGQGTMVTVSS
notes: as for B1

EC50 [1]: 2.6 µg/mL
Kd (human DLL3 protein [2]): 1.22 nM
koff (human DLL3 protein [2]): 0.000288 s⁻¹
kon (human DLL3 protein [2]): 236000 M⁻¹ s⁻¹
EC50 [3]: 0.38 µg/mL
B3: Ab.76 scFv-human IgG Fc (Fc fusion)
chain: EIVMTQSPATLSVSPGERATLSCRASQSVSSNLAWYRQKPGQAPRLFIYGAYTRATDIPARFSGSGSGTEFTLTISSLQSEDFAVYYCQQYNNWPFTFGPGTKVDIKGGGGSGGGGSGGGGSEVQMVESGGVLVQPGMSLRLSCAASGFTFDDYAMHWVRQPPGKGLEWVSVISWNSGSIGYADSVKGRFTISRDNAKNSLYLQMNSLRAEDTAFYYCAKDLEGGVMDFDYWGQGTLVTVSS
notes: not shown: human IgG Fc

EC50 [1]: 0.039 µg/mL
Kd (human DLL3 protein [2]): 0.299 nM
koff (human DLL3 protein [2]): 0.000177 s⁻¹
kon (human DLL3 protein [2]): 591000 M⁻¹ s⁻¹
EC50 [3]: 0.027 µg/mL
B4: Ab.71 scFv-human IgG Fc (Fc fusion)
chain: DIGMTQSPDSLAVSLGERATINCKSSQNVLPNSNKKHYLSWYQQKPGQPPKLLIYLASTRASGVPDRFSGSGSGTDFTLTISSLQAEDVAVYYCQQYYSSPPEWTFGQGTKVEIKGGGGSGGGGSGGGGSQVQLVESGGGVVQPGRSLRLSCVASGFTFSNCGMHWVRQAPGKGLEWVAIIWYDGNIKYYGDSVKGRFTISRDNSKNTLYLQMNSLRVEDTAVYYCGRHDYGGNSFDYWGQGTLVTVSS
notes: as for B1

EC50 [1]: 0.073 µg/mL
Kd (human DLL3 protein [2]): 0.487 nM
koff (human DLL3 protein [2]): 0.000186 s⁻¹
kon (human DLL3 protein [2]): 382000 M⁻¹ s⁻¹
EC50 [3]: 0.064 µg/mL
B5: Ab.79 scFv-human IgG Fc (Fc fusion)
chain: DVVMTQSPLSLPVTLGQPASISCRSSQSLVYNDGNTYLTWFQQWPGQSPRRLIYKVSNRDSGVPDRFSGSGSGTDFTLKISRVEAEDIGVYHCMQGTHWPYTFGQGTKLEIKGGGGSGGGGSGGGGSQVQVQESGPGLVKSSETLSLTCTVSGGSFRSYYWSWIRQPPGKGLDYIGYMYYSGTTNYNPSLTNRVSISVDTSKNQFSLKLNSVTAADTAVYYCAREGTFDIWGQGTVVTVSS
notes: as for B1
